# Experimental data: patent publication US20250236667A1, “ANTIBODIES TO MUTANT CALRETICULIN AND USES THEREOF” (CENTRAL ADELAIDE LOCAL HEALTH NETWORK INC, priority 2021, published 2025)
# T1: thrombopoietin receptor (TpoR) (UniProt P40238 26-635, limits assumed)
# T1 construct: whole, on cells; It was immunoprecipitated with anti-FLAG beads, so the expressed TpoR evidently carries a FLAG tag; The construct and the position of the tag are not described; also called TPO receptor
# T1 sequence (looked up): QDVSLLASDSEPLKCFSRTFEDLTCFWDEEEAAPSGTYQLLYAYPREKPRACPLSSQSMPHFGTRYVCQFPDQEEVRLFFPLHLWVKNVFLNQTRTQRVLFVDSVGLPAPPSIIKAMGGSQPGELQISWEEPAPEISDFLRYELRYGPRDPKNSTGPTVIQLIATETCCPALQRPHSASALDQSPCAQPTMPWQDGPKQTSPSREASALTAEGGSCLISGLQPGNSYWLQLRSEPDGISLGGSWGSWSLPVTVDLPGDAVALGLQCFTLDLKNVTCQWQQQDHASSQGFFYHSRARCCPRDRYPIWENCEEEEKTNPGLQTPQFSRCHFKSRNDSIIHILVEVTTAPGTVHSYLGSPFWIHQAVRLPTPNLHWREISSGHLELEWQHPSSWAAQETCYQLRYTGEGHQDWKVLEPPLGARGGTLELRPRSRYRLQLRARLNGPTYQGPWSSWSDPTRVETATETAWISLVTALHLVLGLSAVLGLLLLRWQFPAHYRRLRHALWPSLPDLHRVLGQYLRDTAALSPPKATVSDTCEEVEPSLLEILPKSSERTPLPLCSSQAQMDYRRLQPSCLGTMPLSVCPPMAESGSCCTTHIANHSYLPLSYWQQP
# T2: full-length 30 amino acid CALR mutant neoepitope peptide (peptide used for immunisation) (human)
# T2 construct: also called full-length peptide
# T2 peptide: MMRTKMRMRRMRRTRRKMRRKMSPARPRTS
# T3: wild type calreticulin (CALR) (human, UniProt P27797 18-417)
# T3 construct: also called CALR^WT; endogenous wild type CALR
# T3 sequence (looked up): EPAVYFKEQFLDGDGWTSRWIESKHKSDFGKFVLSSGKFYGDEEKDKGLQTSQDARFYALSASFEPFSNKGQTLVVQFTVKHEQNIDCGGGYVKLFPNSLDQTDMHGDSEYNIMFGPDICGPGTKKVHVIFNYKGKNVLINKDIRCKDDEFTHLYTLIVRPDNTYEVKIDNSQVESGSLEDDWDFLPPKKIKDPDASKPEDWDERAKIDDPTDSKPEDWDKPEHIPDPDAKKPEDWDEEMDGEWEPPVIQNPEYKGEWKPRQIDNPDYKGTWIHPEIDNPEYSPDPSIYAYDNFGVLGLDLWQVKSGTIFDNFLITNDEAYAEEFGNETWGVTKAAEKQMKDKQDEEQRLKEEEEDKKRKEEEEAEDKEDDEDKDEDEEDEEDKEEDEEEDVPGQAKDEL
# Columns and labels:
# [1] = target: T1, thrombopoietin receptor (TpoR); assay: flow cytometry on TF-1 TpoR cells (TpoR with endogenous wild type CALR)
# [2] = target: T2, full-length 30 amino acid CALR mutant …; assay: Scatchard analysis, 125I-labelled and unlabelled 4D7 on plate-bound full-length peptide; left plot of three replicates, R2= 0.9794
# Procedure: (§1) A. Western blot screening of various mutant CALR antibody clones produced from hybridomas in TF-1 TpoR and TF-1 TpoR CALR^del61. Varying levels of intensity can be observed, compared to commercial Dianova monoclonal mutant CALR antibody. 4D7 is able to detect mutant CALR protein in CALR^del61 cells but not in CALR wild type TF-1 cells. B. Replicate Scatchard analyses of 4D7 using I¹²⁵-labelled and unlabelled 4D7 bound to full-length peptide (n=3). C. […] Cells were cultured in the presence or absence of 10 ng/ml TPO (n=3). D. Paracrine CALR-mutant protein is not sufficient to maintain TPO sensitive cells in culture. TF1 TpoR and TF-1 TpoR CALR^del61 cells were seeded at the same density and cultured in the presence or absence of TPO. […] Cell populations on either side of the membrane were counted every 24 hours over 4 days in triplicate and representative images were taken on day 4. […] E. Histogram overlays showing fluorescence intensity of unstained and PE conjugated IgG2a isotype control in TF-1, TF-1 TpoR and TF-1 TpoR CALR^del61 compared to 4D7 conjugated to PE.
# (§2) 4D7 was radio-iodinated with ¹²⁵I (Perkin-Elmer) using Pierce Pre-Coated Iodination tubes (Thermo Scientific) with an estimated specific activity of 7733cpm/ng. […] 200 μL aliquots from each well were counted on a PerkinElmer 2470 Wizard2 Automatic Gamma Counter. Dissociation constants were calculated using the EBDA and LIGAND programs.
# [3] = target: T2, full-length 30 amino acid CALR mutant …; assay: Scatchard analysis, 125I-labelled and unlabelled 4D7 on plate-bound full-length peptide; right plot of three replicates, R2= 0.994
# Procedure: as §1, §2
# [4] = target: T2, full-length 30 amino acid CALR mutant …; assay: Scatchard analysis, 125I-labelled and unlabelled 4D7 on plate-bound full-length peptide; middle plot of three replicates, R2= 0.9926
# Procedure: as §1, §2
# [5] = target: T3, wild type calreticulin (CALR); assay: Western blot of TF-1 cell extracts (hybridoma clone screen)
# Procedure: B. Replicate Scatchard analyses of 4D7 using I¹²⁵-labelled and unlabelled 4D7 bound to full-length peptide (n=3). C. […] Cells were cultured in the presence or absence of 10 ng/ml TPO (n=3). D. Paracrine CALR-mutant protein is not sufficient to maintain TPO sensitive cells in culture. TF1 TpoR and TF-1 TpoR CALR^del61 cells were seeded at the same density and cultured in the presence or absence of TPO. Cells were separated by semi-permeable membrane in a horizontal co-culture system. Cell populations on either side of the membrane were counted every 24 hours over 4 days in triplicate and representative images were taken on day 4. Exogenous CALR secreted by TF-1 TpoR CALR^del61 was unable to assist growth of factor dependent TF-1 TopR cells (n=3). E. Histogram overlays showing fluorescence intensity of unstained and PE conjugated IgG2a isotype control in TF-1, TF-1 TpoR and TF-1 TpoR CALR^del61 compared to 4D7 conjugated to PE.
# For immunoblotting of total lysates, cells were lysed in NP40 buffer containing 150 mM NaCl, 50 mM Tris pH 7.6, 1% NP-40, supplemented with protease inhibitors (Complete, Roche) and phosphatase inhibitor cocktails, and boiled for 5 minutes after addition of sample buffer (60 mM Tris pH 6.8, 5% glycerol, 1% SDS, 2% β-mercaptoethanol, 0.02% bromophenol blue) before SDS gel electrophoresis followed by Western blotting (Tvorogov et al, 2010). […]
# [6] = target: T2, full-length 30 amino acid CALR mutant …; assay: 125I-Scatchard analysis, saturation binding of 125I-4D7 to plate-coated peptide
# Procedure: 4D7 was radio-iodinated with ¹²⁵I (Perkin-Elmer) using Pierce Pre-Coated Iodination tubes (Thermo Scientific) with an estimated specific activity of 7733cpm/ng. For saturation binding assays, plates were coated overnight at 4° C. with full-length neoepitope CALR peptide (2 μg/mL) or control scrambled peptide (2 μg/mL). Wells were washed 3 times with phosphate buffered saline+0.05% Tween20, blocked with 5% bovine serum albumin for 1 hour followed by further washing. ¹²⁵I-4D7 was added at concentrations ranging from 2 pM to 2.5 nM in triplicate and incubated at room temperature for 2 hours. After washing, 1M HCl was added for 30 minutes to elute bound antibody. 200 μL aliquots from each well were counted on a PerkinElmer 2470 Wizard2 Automatic Gamma Counter. Dissociation constants were calculated using the EBDA and LIGAND programs.
# [7] = tested on: 30 amino acid peptide corresponding to the C-terminal mutant CALR neoepitope sequence; assay: ELISA binding to peptide; parameters: species or system human
# Procedure: (§3) Rats were immunised with a CALR mutant peptide “MMRTKMRMRRMRRT RRKMRRKMSPARPRTS” coupled to KLH, this peptide sequence is unique to CALR mutant. Serum from the immunised rats was screened by enzyme linked immunoassay, to verify a strong titre to the peptide immunogen, prior to performing the hybridoma fusion. Immunised rat spleen cells were harvested and a spleen single cell suspension was combined with Sp2/O myeloma cell line. The cell mixture was treated with polyethylene glycol plus DMEM prior to been plated in 96 well flat bottom plates. The expanding hybridomas were screened initially by ELISA and the positive clones were further verified by western blot, for reactivity to the expressed CALR mutant protein before subcloning the hybridomas for antibody production.
# mutant CALR protein = assay: Western blot detection of mutant CALR by hybridoma clones; assay type: binding, human; conditions: cell extracts from TF-1 cells transduced with and without mutant CALR; data not shown
# Procedure: as §3
# For immunoblotting of total lysates, cells were lysed in NP40 buffer containing 150 mM NaCl, 50 mM Tris pH 7.6, 1% NP-40, supplemented with protease inhibitors (Complete, Roche) and phosphatase inhibitor cocktails, and boiled for 5 minutes after addition of sample buffer (60 mM Tris pH 6.8, 5% glycerol, 1% SDS, 2% β-mercaptoethanol, 0.02% bromophenol blue) before SDS gel electrophoresis followed by Western blotting (Tvorogov et al, 2010). Primary antibodies against pERK (#9101), pSTAT5 (#9359), ERK (#4695), Actin (#4970), Caspase 3 (#14220), wildtype CALR (#12238) were purchased from Cell Signalling. Primary antibodies against pSTATI (#612233), pSTAT3 (#612357), STATI (#610186), STAT3 (#610190), STAT5 (#610192) and Anti-phosphotyrosine 4G10 (#610012) were purchased from BD Biosciences. Mutant CALR monoclonal antibody CAL2 was purchased from Dianova (Hamburg, Germany). Immunopreciptation of TpoR was performed in standard NP40 lysis buffer with additional 50 mM iodoacetamide to avoid any de novo disulfide bond formation post lysis. To reduce IgG background during immunoprecipitation anti-FLAG conjugated to magnetic beads (Sigma, #M8823) were used. For this same reason, anti-FLAG-HRP conjugated antibodies (Sigma, #A8592) were used in western blotting.
# [8] = tested on: TF-1 TpoR CALR^del61 cells; assay: Cell proliferation, trypan blue exclusion; assay type: cell-based, human; conditions: 5 or 20 μg/mL; FIG. 8
# Procedure: […] Cells were seeded in triplicate and each well was counted in triplicate every 24 hours for 5 days using trypan blue exclusion.
# [9] = target: T2, full-length 30 amino acid CALR mutant …; assay: ELISA on peptide
# [10] = target: T3, wild type calreticulin (CALR); assay: Western blot of cell extracts
Kd [2] [nM],Kd [3] [nM],Kd [4] [nM],binding result [5],Kd [6] [nM],binding to peptide by ELISA [7],binding result [9],binding result [10],Molecule,binding result [1],detecting mutant but not wild type CALR protein by Western blotting (mutant CALR protein),proliferation of cytokine-independent TF1 TpoR/mutCALR cells [8]
1.91,1.25,1.43,no binding,1.53,,,,"4D7 rat monoclonal IgG2a anti-mutant calreticulin antibody (antibody, V domains shown, also called clone 4D7; clone 4D7 mAb) VH: QVQLQQSGAELAKPGSSVKISCKASGYTFTNYDMSWIKQRPGQALEWIGAINPGNGVTDYNEKFRGKATLTVDKSSSTAFMQLSSLTPEDTAVYHCAREYRDNYGYFDYWGQGVMVTVSS VL: DIVLTQTPVSLSVTLGDQASISCRSSQSLEYSDGYTYLDWFLQKPGQSPQLLIYEVSSRFSGVPDRFIGRGSGTDFTLKISRVEPEDLGVYYCFQATHDPFTFGSGTKLEIK",no binding (tested: 4 µg/mL (FIG. 1D legend)),,
,,,,,positive binding,binds,no binding,"9H11 rat monoclonal anti-mutant calreticulin antibody (antibody, V domains shown, also called rat anti-human mutCALR 9H11) VH: QVQLQQSGAELTKPGSSVKISCKASGYTFTTYDISWIKQRPGQALEWIGAIYPGGETTGYNEKFKDKATLTVDKSSNTAFMQLSSLTPEDTAVYYCARWGHTTGTRFDHWGQGVMVTVSS VL: DIVLTQTPVSLSVSLGDQASISCRSSQSLEYSDGYTYLEWYVQKPGQSPQLLIWEVSDRFSGVPDRFIGSGSGTDFTLKISRVEPEDLGVYYCFQATHDPPTFGGGTKLELK",,superior activity,inhibit proliferation
